Tested on: c-Abl (mouse)
Assay: phosphorylation enrichment, bacterial display (enrichment ratio); higher = better substrate or ligand; peptides without Tyr show the background
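Also: 11-residue human phosphosite peptides and single-mutation variants displayed on the E. coli surface, counted by deep sequencing, each peptide's frequency after selection divided by its frequency in the unselected input library; frequency after pTyr selection over input frequency; kinase dosed for 20-30% of maximal phosphorylation in three min.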

Sequence	phosphorylation enrichment
LTFDEYRNISQ [ANXA3_Y216]	1.13
PEVSGYCHYAD [TG_Y234_C237Y]	1.2
ELAVNYQEQAS [SLC9A9_Y591_I589V]	0.66
GDPTEYFITAI [IGSF22_Y501_S503I_YF]	0.911
QNTGDDFDLFG [PTPN11_Y62_Y62D_YF]	1.11
RLAKTYETTLE [ALB_Y377]	0.955
DDFDLYGGEKF [PTPN11_Y66_Y62D_YF]	0.731
SAGSSYSISVI [PAX5_Y179_G183V]	0.807
FLNSIYKCRDE [ROS1_Y2227_S2229C]	0.78
ARLEFYENEKK [IRS1_Y47_YF]	0.492
FRVAGYKTQGG [TIA1_Y383_E384K_YF]	0.686
FCVVRYCWLRR [MPZ_Y181_Y177C]	0.773
TDHLQYFDSNK [ARAP1_Y359_R358Q]	0.695
AASHRYDLGGL [QPRT_Y162]	0.432
TISPYYCQSLF [CRYAA_Y48_R49C]	1.13
CTTIHYDFMCN [TP53_Y234_N235D_YF]	0.704
LPEENYQVLRF [ARHGAP1_Y365]	1.18

Sequence	phosphorylation enrichment
VEEDTYTMPST [PTK2_Y407_D402V]	1.18
ACEVLYNIVFM [NCF2_Y125_A128V]	1.84
TNFPLYLRSLE [MTM1_Y71_R69P_YF]	0.493
VKPHRYRPGTV [H3-5_Y41]	0.613
YGGLRYGYGGL [KRTAP20-2_Y13_V17G]	0.559
DGYIDYAEFAK [MCFD2_Y138]	0.674
VTAALYGRLYE [BTD_Y536]	0.888
SHSMKYFDTAV [HLA-C_Y31_R30K]	0.469
EKKKYYDAKIE [CASP5_Y104_T106A]	0.609
HFVDEYDPTME [KRAS_Y32_I36M]	1.31
KVGNEYVNKGQ [MYH7_Y410_T412N]	0.422
RREWYYEVIIA [BACE1_Y260_V265A]	0.542
IGEVVYQRAAM [GRIN2A_Y502_V506A]	5.89
DLDLTYIYPNI [PTEN_Y27]	0.612
TPGPNYRPGYN [USH2A_Y463]	0.404
NQSVRYDSSLK [ABCC8_Y1353_L1349Q]	0.487

Biological target: FGFR1 (UniProt P11362)
Assay: as above

FGFR1, sequence (P11362 whole entry, looked up): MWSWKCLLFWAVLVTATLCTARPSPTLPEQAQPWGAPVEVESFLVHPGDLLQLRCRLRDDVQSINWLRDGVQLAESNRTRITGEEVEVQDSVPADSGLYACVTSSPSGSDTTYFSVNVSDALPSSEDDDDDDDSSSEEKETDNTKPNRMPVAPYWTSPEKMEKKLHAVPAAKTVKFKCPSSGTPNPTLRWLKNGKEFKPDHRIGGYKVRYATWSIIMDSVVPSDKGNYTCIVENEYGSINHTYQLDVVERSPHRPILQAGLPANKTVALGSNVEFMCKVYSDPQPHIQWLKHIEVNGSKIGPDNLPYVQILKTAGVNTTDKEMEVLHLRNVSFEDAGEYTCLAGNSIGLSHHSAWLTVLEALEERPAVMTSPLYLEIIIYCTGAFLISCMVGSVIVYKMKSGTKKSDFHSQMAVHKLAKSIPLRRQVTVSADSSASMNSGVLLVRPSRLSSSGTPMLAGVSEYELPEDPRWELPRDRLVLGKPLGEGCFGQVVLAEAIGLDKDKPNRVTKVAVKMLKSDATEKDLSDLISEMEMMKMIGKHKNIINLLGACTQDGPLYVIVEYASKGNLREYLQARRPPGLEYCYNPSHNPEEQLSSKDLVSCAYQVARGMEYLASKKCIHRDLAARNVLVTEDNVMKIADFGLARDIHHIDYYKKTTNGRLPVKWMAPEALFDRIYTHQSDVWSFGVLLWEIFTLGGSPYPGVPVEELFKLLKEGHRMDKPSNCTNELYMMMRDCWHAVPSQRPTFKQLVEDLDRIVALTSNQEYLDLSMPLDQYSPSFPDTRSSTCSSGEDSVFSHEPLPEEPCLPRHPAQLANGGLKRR

Sequence	phosphorylation enrichment
LTFDEYRNISQ [ANXA3_Y216]	1.23
PEVSGYCHYAD [TG_Y234_C237Y]	0.427
ELAVNYQEQAS [SLC9A9_Y591_I589V]	0.605
GDPTEYFITAI [IGSF22_Y501_S503I_YF]	1.07
QNTGDDFDLFG [PTPN11_Y62_Y62D_YF]	0.936
RLAKTYETTLE [ALB_Y377]	0.711
DDFDLYGGEKF [PTPN11_Y66_Y62D_YF]	0.585
SAGSSYSISVI [PAX5_Y179_G183V]	0.485
FLNSIYKCRDE [ROS1_Y2227_S2229C]	0.579
ARLEFYENEKK [IRS1_Y47_YF]	0.58
FRVAGYKTQGG [TIA1_Y383_E384K_YF]	0.417
FCVVRYCWLRR [MPZ_Y181_Y177C]	0.552
TDHLQYFDSNK [ARAP1_Y359_R358Q]	0.928
AASHRYDLGGL [QPRT_Y162]	0.416
TISPYYCQSLF [CRYAA_Y48_R49C]	5.32
CTTIHYDFMCN [TP53_Y234_N235D_YF]	0.544
LPEENYQVLRF [ARHGAP1_Y365]	2.81

Sequence	phosphorylation enrichment
VEEDTYTMPST [PTK2_Y407_D402V]	0.697
ACEVLYNIVFM [NCF2_Y125_A128V]	1.8
TNFPLYLRSLE [MTM1_Y71_R69P_YF]	0.449
VKPHRYRPGTV [H3-5_Y41]	0.407
YGGLRYGYGGL [KRTAP20-2_Y13_V17G]	0.407
DGYIDYAEFAK [MCFD2_Y138]	1.31
VTAALYGRLYE [BTD_Y536]	0.498
SHSMKYFDTAV [HLA-C_Y31_R30K]	0.396
EKKKYYDAKIE [CASP5_Y104_T106A]	0.526
HFVDEYDPTME [KRAS_Y32_I36M]	0.424
KVGNEYVNKGQ [MYH7_Y410_T412N]	0.492
RREWYYEVIIA [BACE1_Y260_V265A]	4.47
IGEVVYQRAAM [GRIN2A_Y502_V506A]	0.438
DLDLTYIYPNI [PTEN_Y27]	3.8
TPGPNYRPGYN [USH2A_Y463]	0.232
NQSVRYDSSLK [ABCC8_Y1353_L1349Q]	0.341

Reference: the supplement of paper PMC10065799, “High-throughput profiling of sequence recognition by tyrosine kinases and SH2 domains using bacterial peptide display” (eLife, 2023)
